Laboratory results from patent US6623741.

Key:
[1] = biological target: viral gp41 of HIV-1 (on HIV-1 virions and HIV-1 infected cells) (HIV-1) (UniProt P04578); test: cell-based or functional assay
[2] = biological target: MF-IV (MF5.1): E. coli maltose binding protein fused to RSV F protein residues 142-302 (E. coli; respiratory syncytial virus (strain A2)) (UniProt P03420); test: competitive binding assay (B50) on the MF5.1 fusion protein; reference T112
[3] = biological target: MF-IV (MF5.1): E. coli maltose binding protein fused to RSV F protein residues 142-302 (E. coli; respiratory syncytial virus (strain A2)) (UniProt P03420); test: competitive binding assay (B50) on the MF5.1 fusion protein (DP107 target)

Row | Substance | Cell Fusion (IC90) [1] [nM] | HIV-infectivity (IC90) [1] [nM] | fold lower binding affinity than T112 [2] [fold] | binding affinity [3] [nM]
1 | DP107 (peptide) | 1000 | 1000 |  | 
2 | T1091 (peptide) |  |  | 10 | 19
3 | M41-P (M41 with Ile to Pro mutation at position 578) (from UniProt P03377 540-686) | 83 | 66 |  | 
4 | M41-PΔ178 (M41Δ178 with the Ile to Pro mutation at position 578) (from UniProt P03377 540-642) | > 50000 | > 8000 |  | 
5 | M41 (maltose binding protein fused to the extracellular domain of HIV-1 gp41, residues 540-686) (from UniProt P03377 540-686) | > 50000 | > 16 |  | 
6 | DP178 (peptide) | 1 | 80 |  | 
